Numbering of substitutions follows the chain as printed. Names and notes keep the numbering of the source.
T1: PUF4 RNA-binding domain (Saccharomyces cerevisiae, UniProt P25339 537-888)
T1 sequence: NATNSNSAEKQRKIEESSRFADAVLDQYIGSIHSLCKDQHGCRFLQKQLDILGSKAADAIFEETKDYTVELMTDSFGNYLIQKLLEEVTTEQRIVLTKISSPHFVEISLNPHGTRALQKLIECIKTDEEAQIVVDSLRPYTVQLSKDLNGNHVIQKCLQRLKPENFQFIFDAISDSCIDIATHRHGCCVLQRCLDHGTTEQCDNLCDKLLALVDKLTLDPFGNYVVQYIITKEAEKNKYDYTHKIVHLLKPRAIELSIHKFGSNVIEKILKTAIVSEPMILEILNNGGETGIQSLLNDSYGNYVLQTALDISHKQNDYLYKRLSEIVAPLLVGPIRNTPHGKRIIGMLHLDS

B1: Id_ii_S2_P4E.2_K4.1_C4.2_[C-2G]_[T-1G]_H4.1_A4.1_F4.1_T4.2_[G10T] (ssRNA)
RNA: UUUGAUUAAUAUGAUAUCGUUCUUUCUGGUGUAUAUUAUUUUCUUUCUCGAUAUCAUAUUAAUCUUU
B2: Id_ii_S2_P4E.2_K4.1_C4.2_[C-2T]_[T-1G]_H4.1_A4.1_F4.1_T4.2_[G10A] (ssRNA)
RNA: B1 RNA with G28U, U39A
B3: Id_ii_S2_P4E.2_K4.1_C4.2_[C-2G]_[T-1C]_H4.1_A4.1_F4.1_T4.2_[G10C]_[T11C] (ssRNA)
RNA: B1 RNA with G29C, U39C, U40C
B4: Id_ii_S2_P4E.2_K4.1_C4.2_[C-2T]_[T-1C]_H4.1_A4.1_F4.1_T4.2_[G10T]_[T11C] (ssRNA)
RNA: B1 RNA with G28U, G29C, U40C
B5: Id_ii_S2_P4E.2_K4.1_C4.2_[C-2T]_[T-1C]_H4.1_A4.1_F4.1_T4.2_[G10C]_[T11C] (ssRNA)
RNA: B1 RNA with G28U, G29C, U39C, U40C
B6: Id_ii_S2_P4E.2_K4.1_C4.2_[C-2T]_[T-1G]_H4.1_A4.1_F4.1_T4.2_[G10T] (ssRNA)
RNA: B1 RNA with G28U
B7: Id_ii_S2_P4E.2_K4.1_C4.2_[C-2T]_[T-1A]_H4.1_A4.1_F4.1_T4.2_[G10T] (ssRNA)
RNA: B1 RNA with G28U, G29A
B8: Id_ii_S2_P4E.2_K4.1_C4.2_[C-2T]_H4.1_A4.1_F4.1_T4.2_[G10T]_[T11C] (ssRNA)
RNA: B1 RNA with G28U, G29U, U40C
B9: Id_ii_S2_P4E.2_K4.1_C4.2_[C-2T]_[T-1C]_H4.1_A4.1_F4.1_T4.2_[G10C] (ssRNA)
RNA: B1 RNA with G28U, G29C, U39C
B10: Id_ii_S2_P4E.2_K4.1_C4.2_[C-2G]_H4.1_A4.1_F4.1_T4.2_[G10A] (ssRNA)
RNA: B1 RNA with G29U, U39A
B11: Id_ii_S2_P4E.2_K4.1_C4.2_[C-2T]_H4.1_A4.1_F4.1_T4.2_[G10C] (ssRNA)
RNA: B1 RNA with G28U, G29U, U39C
B12: Id_ii_S2_P4E.2_K4.1_C4.2_[C-2T]_H4.1_A4.1_F4.1_T4.2_[G10A] (ssRNA)
RNA: B1 RNA with G28U, G29U, U39A
B13: Id_ii_S2_P4E.2_K4.1_C4.2_[C-2G]_[T-1C]_H4.1_A4.1_F4.1_T4.2_[G10A] (ssRNA)
RNA: B1 RNA with G29C, U39A
B14: Id_ii_S2_P4E.2_K4.1_C4.2_[C-2T]_H4.1_A4.1_F4.1_T4.2_[G10T]_[T11A] (ssRNA)
RNA: B1 RNA with G28U, G29U, U40A
B15: Id_ii_S2_P4E.2_K4.1_C4.2_[C-2T]_[T-1G]_H4.1_A4.1_F4.1_T4.2_[G10A]_[T11A] (ssRNA)
RNA: B1 RNA with G28U, U39A, U40A
B16: Id_ii_S2_P4E.2_K4.1_C4.2_[C-2T]_[T-1G]_H4.1_A4.1_F4.1_T4.2_[G10T]_[T11C] (ssRNA)
RNA: B1 RNA with G28U, U40C
B17: Id_ii_S2_P4E.2_K4.1_C4.2_[C-2T]_H4.1_A4.1_F4.1_T4.2_[T11C] (ssRNA)
RNA: B1 RNA with G28U, G29U, U39G, U40C
B18: Id_ii_S2_P4E.2_K4.1_C4.2_[C-2G]_H4.1_A4.1_F4.1_T4.2_[G10T]_[T11A] (ssRNA)
RNA: B1 RNA with G29U, U40A
B19: Id_ii_S2_P4E.2_K4.1_C4.2_[C-2G]_[T-1C]_H4.1_A4.1_F4.1_T4.2_[G10A]_[T11A] (ssRNA)
RNA: B1 RNA with G29C, U39A, U40A
B20: Id_ii_S2_P4E.2_K4.1_C4.2_[C-2T]_[T-1A]_H4.1_A4.1_F4.1_T4.2_[G10C]_[T11C] (ssRNA)
RNA: B1 RNA with G28U, G29A, U39C, U40C
B21: Id_ii_S2_P4E.2_K4.1_C4.2_[C-2T]_[T-1C]_H4.1_A4.1_F4.1_T4.2_[G10A]_[T11C] (ssRNA)
RNA: B1 RNA with G28U, G29C, U39A, U40C
B22: Id_ii_S2_P4E.2_K4.1_C4.2_[C-2G]_H4.1_A4.1_F4.1_T4.2_[G10T]_[T11G] (ssRNA)
RNA: B1 RNA with G29U, U40G
B23: Id_ii_S2_P4E.2_K4.1_C4.2_[C-2G]_[T-1C]_H4.1_A4.1_F4.1_T4.2_[G10C] (ssRNA)
RNA: B1 RNA with G29C, U39C
B24: Id_ii_S2_P4E.2_K4.1_C4.2_[C-2G]_[T-1C]_H4.1_A4.1_F4.1_T4.2_[G10T] (ssRNA)
RNA: B1 RNA with G29C
B25: Id_ii_S2_P4E.2_K4.1_C4.2_[C-2T]_[T-1A]_H4.1_A4.1_F4.1_T4.2 (ssRNA)
RNA: B1 RNA with G28U, G29A, U39G
B26: Id_ii_S2_P4E.2_K4.1_C4.2_[C-2T]_[T-1A]_H4.1_A4.1_F4.1_T4.2_[G10A] (ssRNA)
RNA: B1 RNA with G28U, G29A, U39A
B27: Id_ii_S2_P4E.2_K4.1_C4.2_[C-2T]_H4.1_A4.1_F4.1_T4.2_[G10T] (ssRNA)
RNA: B1 RNA with G28U, G29U
B28: Id_ii_S2_P4E.2_K4.1_C4.2_[C-2G]_[T-1C]_H4.1_A4.1_F4.1_T4.2_[G10T]_[T11A] (ssRNA)
RNA: B1 RNA with G29C, U40A
B29: Id_ii_S2_P4E.2_K4.1_C4.2_[C-2T]_H4.1_A4.1_F4.1_T4.2_[G10C]_[T11C] (ssRNA)
RNA: B1 RNA with G28U, G29U, U39C, U40C
B30: Id_ii_S2_P4E.2_K4.1_C4.2_[C-2T]_[T-1G]_H4.1_A4.1_F4.1_T4.2_[G10T]_[T11G] (ssRNA)
RNA: B1 RNA with G28U, U40G
B31: Id_ii_S2_P4E.2_K4.1_C4.2_[C-2G]_[T-1G]_H4.1_A4.1_F4.1_T4.2_[G10A]_[T11A] (ssRNA)
RNA: B1 RNA with U39A, U40A
B32: Id_ii_S2_P4E.2_K4.1_C4.2_[C-2T]_H4.1_A4.1_F4.1_T4.2_[G10T]_[T11G] (ssRNA)
RNA: B1 RNA with G28U, G29U, U40G
B33: Id_ii_S2_P4E.2_K4.1_C4.2_[C-2T]_[T-1A]_H4.1_A4.1_F4.1_T4.2_[G10T]_[T11C] (ssRNA)
RNA: B1 RNA with G28U, G29A, U40C
B34: Id_ii_S2_P4E.2_K4.1_C4.2_[C-2T]_[T-1C]_H4.1_A4.1_F4.1_T4.2_[G10A]_[T11A] (ssRNA)
RNA: B1 RNA with G28U, G29C, U39A, U40A
B35: Id_ii_S2_P4E.2_K4.1_C4.2_[C-2T]_[T-1A]_H4.1_A4.1_F4.1_T4.2_[G10A]_[T11A] (ssRNA)
RNA: B1 RNA with G28U, G29A, U39A, U40A
B36: Id_ii_S2_P4E.2_K4.1_C4.2_[C-2T]_[T-1C]_H4.1_A4.1_F4.1_T4.2 (ssRNA)
RNA: B1 RNA with G28U, G29C, U39G
B37: Id_ii_S2_P4E.2_K4.1_C4.2_[C-2G]_H4.1_A4.1_F4.1_T4.2_[G10T]_[T11C] (ssRNA)
RNA: B1 RNA with G29U, U40C
B38: Id_ii_S2_P4E.2_K4.1_C4.2_[C-2T]_[T-1A]_H4.1_A4.1_F4.1_T4.2_[T11C] (ssRNA)
RNA: B1 RNA with G28U, G29A, U39G, U40C
B39: Id_ii_S2_P4E.2_K4.1_C4.2_[C-2G]_H4.1_A4.1_F4.1_T4.2_[G10C]_[T11C] (ssRNA)
RNA: B1 RNA with G29U, U39C, U40C
B40: Id_ii_S2_P4E.2_K4.1_C4.2_[C-2G]_[T-1C]_H4.1_A4.1_F4.1_T4.2_[G10T]_[T11G] (ssRNA)
RNA: B1 RNA with G29C, U40G
B41: Id_ii_S2_P4E.2_K4.1_C4.2_[C-2G]_H4.1_A4.1_F4.1_T4.2_[G10A]_[T11A] (ssRNA)
RNA: B1 RNA with G29U, U39A, U40A

Molecular target: T1, PUF4 RNA-binding domain
Test: Mg; RNA-MaP; 20 mM Na-HEPES pH 7.4, 30 mM KOAc, 0.75 mM MgCl2, 0.1% Tween-20, 5% glycerol, 0.1 mg/mL BSA, 2 mM DTT; 25 C; 0.0125-409.6 nM protein
Conditions: tags: N-His6-TEV cleaved; C-SNAP kept, Cy3B-labelled; label: tethered on chip by stalled RNA polymerase

| Binder | Kd [nM] |
| --- | --- |
| UCUCUUAGUAUUAUUGUCUCUU (ssRNA) [Ib_S1_P5E.1_K5.1_C5.1_H5.1_[T1A]_A5.1_F5.1_[A10G]_T5.1] | > 2300 |
| UCUCUUGGUAUUAUUGUCUCUU (ssRNA) [Ib_S1_P5E.1_K5.1_C5.1_H5.1_[T1G]_A5.1_F5.1_[A10G]_T5.1] | > 2300 |
| UCUCUUUGUUUUAUAAUCUCUU (ssRNA) [Ib_S1_P5E.1_K5.1_C5.1_H5.1_[A4T]_A5.1_F5.1_[T9A]_T5.1] | 87.4 |
| UCUCUUUGUCUUAUAAUCUCUU (ssRNA) [Ib_S1_P5E.1_K5.1_C5.1_H5.1_[A4C]_A5.1_F5.1_[T9A]_T5.1] | 102 |
| B1 | 0.435 |
| B2 | 0.4 |
| B3 | 1.25 |
| B4 | 0.305 |
| B5 | 0.565 |
| B6 | 0.23 |
| B7 | 0.502 |
| B8 | 0.364 |
| B9 | 0.602 |
| B10 | 0.724 |
| B11 | 0.762 |
| B12 | 0.408 |
| B13 | 0.535 |
| B14 | 0.564 |
| B15 | 0.532 |
| B16 | 0.441 |
| B17 | 0.396 |
| B18 | 0.928 |
| B19 | 0.738 |

| Binder | Kd [nM] |
| --- | --- |
| B20 | 0.822 |
| B21 | 0.526 |
| B22 | 0.585 |
| B23 | 0.667 |
| B24 | 0.289 |
| B25 | 0.715 |
| B26 | 0.878 |
| B27 | 0.26 |
| B28 | 0.822 |
| B29 | 0.557 |
| B30 | 0.416 |
| B31 | 1.5 |
| B32 | 0.421 |
| B33 | 0.618 |
| B34 | 0.481 |
| B35 | 1.03 |
| B36 | 0.446 |
| B37 | 1.6 |
| B38 | 0.523 |
| B39 | 1.8 |
| B40 | 0.82 |
| B41 | 0.659 |
